Results on 1 molecule are retold here after patent publication US20240002500A1 (GUANGDONG FAPON BIOPHARMA, published 2024).

Test [1] deals with T1, human Tigit extracellular domain recombinant protein hTigit-his (Acrobiosystem, Cat.TIT-H2H3) (human, UniProt Q495A1 22-141).
T1 construct: extracellular domain; Bought; not shown: his tag
T1 sequence (looked up): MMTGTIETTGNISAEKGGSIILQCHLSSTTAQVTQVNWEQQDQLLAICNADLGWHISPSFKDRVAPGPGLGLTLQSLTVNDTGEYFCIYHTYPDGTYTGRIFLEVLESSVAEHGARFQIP
Nature of the test: BLI epitope binning (ForteBIO QKe), hTigit-his on anti-Penta-HIS sensor; competitor R0223. As for the experimental part: (§1) Epitope competition analysis was performed on an anti-human TIGIT antibody with an MD ForteBIO QKe platform. An experimental method included: a human Tigit extracellular domain recombinant protein hTigit-his (Acrobiosystem, Cat.TIT-H2H3, lot-1336-76GF1-F9) carrying a his tag was diluted with an equilibration buffer (1×PBS+0.02% Tween 20), until the final concentration was 1.5 μg/ml. The anti-human Tigit antibody was diluted with the equilibration buffer (1×PBS+0.02% Tween 20), the final concentration being 5 μg/ml. After an anti-Penta-HIS biosensor (ForteBIO, Cat. 18-5122) was fully hydrated, first the hTigit-his recombinant protein was solidified for 180 seconds, then equilibrated for 30 seconds, and bound to the first anti-human Tigit antibody for 180 seconds, then equilibrated for 30 seconds, and then bound to the second anti-human Tigit antibody, binding time being 300 seconds. The whole reaction was performed at 25° C. and 1000 rpm; and finally, Octet analysis software was used to perform epitope binning analysis.
(In general: Biolayer interferometry detects binding as a change in optical thickness at a sensor tip.)

The target of test [2] is T1, human Tigit extracellular domain …. Nature of the test: BLI epitope binning (ForteBIO QKe), hTigit-his on anti-Penta-HIS sensor; competitor R0300. As for the experimental part:
as §1

B1: Tigit-18 (antibody, V domains shown)
VH: QVQLQQPGAELVRPGASVKLSCKASGYSFTSYWMNWVKQRPGQGHEWIGMIHLSNSETRLNQNFLDKATLTVDKSSSTVYLQLSSPTSEDSAVYYCARERDYYGSSYFDYWGQGTTLTVSS
VL: DIVMTQSPASLVVSLGQRATISCRTSQSVSTSSYSYMHWYQQKPGQPPKLLIKNASNLESGVPARFSASGSGTDFTLNIHPVEEEDAATYYCQHSWEIPRTFGGGTKLEIK
As to B1, the “epitope binning signal (name and unit not given)” value in test [1] came out at 0.0383; in test [2], 0.544.
